The record followed here is the supplement of paper PMC5998384.

For data set [1], the system named is HeLa Kyoto. The experiment in a line: solubility change mitosis vs G1/S (difference of NP-40 vs SDS log2 ratios) (log2 ratio difference); higher = more soluble in mitosis.
Data set [2] has as its system HeLa Kyoto. Nature of the data set: melting temperature (median over replicates), in situ; higher = more thermally stable.
Data set [3] relates to HeLa Kyoto. The experiment in a line: solubility in G1/S (NP-40 vs SDS abundance) (log2 ratio); higher = more soluble. The settings on record: cell cycle stage: G1/S.
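For melting temperature (median over replicates), in situ in this document: HeLa Kyoto cells synchronized by double thymidine or nocodazole block, proteins quantified by TMT10plex mass spectrometry, three independent biological replicates.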
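For solubility change mitosis vs G1/S (difference of NP-40 vs SDS log2 ratios) in this document: synchronized HeLa Kyoto cells (double thymidine block for G1/S, nocodazole release for mitosis), protein amounts in NP-40 versus SDS lysates quantified by mass spectrometry, three biological replicates.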
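For solubility in G1/S (NP-40 vs SDS abundance) in this document: HeLa Kyoto cells arrested at G1/S by double thymidine block, proteins quantified by TMT10plex mass spectrometry in mild NP-40 versus SDS extracts, three biological replicates.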

Consider “MSVQSSSGSLEGPPSWSQLSTSPTPGSAAAARSLLNHTPPSGRPREGAMDELHSLDPRRQELLEARFTGVASGSTGSTGSCSVGAKASTNNESSNHSFGSLGSLSDKESETPEKKQSESSRGRKRKAENQNESSQGKSIGGRGHKISDYFEYQGGNGSSPVRGIPPAIRSPQNSHSHSTPSSSVRPNSPSPTALAFGDHPIVQPKQLSFKIIQTDLTMLKLAALESNKIQDLEKKEGRIDDLLRANCDLRRQIDEQQKLLEKYKERLNKCISMSKKLLIEKSTQEKLSSREKSMQDRLRLGHFTTVRHGASFTEQWTDGFAFQNLVKQQEWVNQQREDIERQRKLLAKRKPPTANNSQAPSTNSEPKQRKNKAVNGAENDPFVRPNLPQLLTLAEYHEQEEIFKLRLGHLKKEEAEIQAELERLERVRNLHIRELKRINNEDNSQFKDHPTLNERYLLLHLLGRGGFSEVYKAFDLYEQRYAAVKIHQLNKSWRDEKKENYHKHACREYRIHKELDHPRIVKLYDYFSLDTDTFCTVLEYCEGNDLDFYLKQHKLMSEKEARSIVMQIVNALRYLNEIKPPIIHYDLKPGNILLVDGTACGEIKITDFGLSKIMDDDSYGVDGMDLTSQGAGTYWYLPPECFVVGKEPPKISNKVDVWSVGVIFFQCLYGRKPFGHNQSQQDILQENTILKATEVQFPVKPVVSSEAKAFIRRCLAYRKEDRFDVHQLANDPYLLPHMRRSNSSGNLHMAGLTASPTPPSSSIITY [TLK1]”, for which the “solubility change mitosis (log2)” value in the data set on HeLa Kyoto [1] is -0.0453. The melting temperature worked out at 50.1 °C in the data set on HeLa Kyoto [2] (cell cycle stage: G1/S) and 53.3 °C with HeLa Kyoto [2] (cell cycle stage: mitosis). In addition, in the data set on HeLa Kyoto [3], the “solubility in G1/S (log2)” value worked out at 0.061.
Regarding “MTGKSVKDVDRYQAVLANLLLEEDNKFCADCQSKGPRWASWNIGVFICIRCAGIHRNLGVHISRVKSVNLDQWTQEQIQCMQEMGNGKANRLYEAYLPETFRRPQIDPAVEGFIRDKYEKKKYMDRSLDINAFRKEKDDKWKRGSEPVPEKKLEPVVFEKVKMPQKKEDPQLPRKSSPKSTAPVMDLLGLDAPVACSIANSKTSNTLEKDLDLLASVPSPSSSGSRKVVGSMPTAGSAGSVPENLNLFPEPGSKSEEIGKKQLSKDSILSLYGSQTPQMPTQAMFMAPAQMAYPTAYPSFPGVTPPNSIMGSMMPPPVGMVAQPGASGMVAPMAMPAGYMGGMQASMMGVPNGMMTTQQAGYMAGMAAMPQTVYGVQPAQQLQWNLTQMTQQMAGMNFYGANGMMNYGQSMSGGNGQAANQTLSPQMWK [SMAP2]”, the “solubility change mitosis (log2)” value in the data set with HeLa Kyoto [1] is -0.0647. In addition, the melting temperature with HeLa Kyoto [2] (cell cycle stage: G1/S) is 48.3 °C; with HeLa Kyoto [2] (cell cycle stage: mitosis), 49.6 °C. For the same sequence, the “solubility in G1/S (log2)” value in the data set on HeLa Kyoto [3] stood at 0.111.
Turning to “MTLIEGVGDEVTVLFSVLACLLVLALAWVSTHTAEGGDPLPQPSGTPTPSQPSAAMAATDSMRGEAPGAETPSLRHRGQAAQPEPSTGFTATPPAPDSPQEPLVLRLKFLNDSEQVARAWPHDTIGSLKRTQFPGREQQVRLIYQGQLLGDDTQTLGSLHLPPNCVLHCHVSTRVGPPNPPCPPGSEPGPSGLEIGSLLLPLLLLLLLLLWYCQIQYRPFFPLTATLGLAGFTLLLSLLAFAMYRP [TMUB1]”, in the data set with HeLa Kyoto [1], the “solubility change mitosis (log2)” value came to 0.143. Further, the figures for the melting temperature with HeLa Kyoto [2] (cell cycle stage: G1/S) and with HeLa Kyoto [2] (cell cycle stage: mitosis) were 51.6 °C and 52.5 °C, respectively. Further, the “solubility in G1/S (log2)” value in the data set on HeLa Kyoto [3] worked out at 0.566.
With “MTNEEPLPKKVRLSETDFKVMARDELILRWKQYEAYVQALEGKYTDLNSNDVTGLRESEEKLKQQQQESARRENILVMRLATKEQEMQECTTQIQYLKQVQQPSVAQLRSTMVDPAINLFFLKMKGELEQTKDKLEQAQNELSAWKFTPDSQTGKKLMAKCRMLIQENQELGRQLSQGRIAQLEAELALQKKYSEELKSSQDELNDFIIQLDEEVEGMQSTILVLQQQLKETRQQLAQYQQQQSQASAPSTSRTTASEPVEQSEATSKDCSRLTNGPSNGSSSRQRTSGSGFHREGNTTEDDFPSSPGNGNKSSNSSEERTGRGGSGYVNQLSAGYESVDSPTGSENSLTHQSNDTDSSHDPQEEKAVSGKGNRTVGSRHVQNGLDSSVNVQGSVL [WTAP]”, the “solubility change mitosis (log2)” value in the data set on HeLa Kyoto [1] turned out to be 0.772. Besides, the melting temperature in the data set with HeLa Kyoto [2] (cell cycle stage: G1/S) turned out to be 48.9 °C; in the data set on HeLa Kyoto [2] (cell cycle stage: mitosis), 50.3 °C. The “solubility in G1/S (log2)” value in the data set with HeLa Kyoto [3] is -0.0275.
Consider “MTRGNQRELARQKNMKKQSDSVKGKRRDDGLSAAARKQRDSEIMQQKQKKANEKKEEPK [SERF2]”, for which the “solubility change mitosis (log2)” value with HeLa Kyoto [1] amounted to 0.151. The sequence also gave a melting temperature with HeLa Kyoto [2] (cell cycle stage: G1/S) of 57.5 °C. For the same sequence, the “solubility in G1/S (log2)” value with HeLa Kyoto [3] came out at 0.752.
For “MTSTGQDSTTTRQRRSRQNPQSPPQDSSVTSKRNIKKGAVPRSIPNLAEVKKKGKMKKLGQAMEEDLIVGLQGMDLNLEAEALAGTGLVLDEQLNEFHCLWDDSFPEGPERLHAIKEQLIQEGLLDRCVSFQARFAEKEELMLVHSLEYIDLMETTQYMNEGELRVLADTYDSVYLHPNSYSCACLASGSVLRLVDAVLGAEIRNGMAIIRPPGHHAQHSLMDGYCMFNHVAVAARYAQQKHRIRRVLIVDWDVHHGQGTQFTFDQDPSVLYFSIHRYEQGRFWPHLKASNWSTTGFGQGQGYTINVPWNQVGMRDADYIAAFLHVLLPVALEFQPQLVLVAAGFDALQGDPKGEMAATPAGFAQLTHLLMGLAGGKLILSLEGGYNLRALAEGVSASLHTLLGDPCPMLESPGAPCRSAQASVSCALEALEPFWEVLVRSTETVERDNMEEDNVEESEEEGPWEPPVLPILTWPVLQSRTGLVYDQNMMNHCNLWDSHHPEVPQRILRIMCRLEELGLAGRCLTLTPRPATEAELLTCHSAEYVGHLRATEKMKTRELHRESSNFDSIYICPSTFACAQLATGAACRLVEAVLSGEVLNGAAVVRPPGHHAEQDAACGFCFFNSVAVAARHAQTISGHALRILIVDWDVHHGNGTQHMFEDDPSVLYVSLHRYDHGTFFPMGDEGASSQIGRAAGTGFTVNVAWNGPRMGDADYLAAWHRLVLPIAYEFNPELVLVSAGFDAARGDPLGGCQVSPEGYAHLTHLLMGLASGRIILILEGGYNLTSISESMAACTRSLLGDPPPLLTLPRPPLSGALASITETIQVHRRYWRSLRVMKVEDREGPSSSKLVTKKAPQPAKPRLAERMTTREKKVLEAGMGKVTSASFGEESTPGQTNSETAVVALTQDQPSEAATGGATLAQTISEAAIGGAMLGQTTSEEAVGGATPDQTTSEETVGGAILDQTTSEDAVGGATLGQTTSEEAVGGATLAQTTSEAAMEGATLDQTTSEEAPGGTELIQTPLASSTDHQTPPTSPVQGTTPQISPSTLIGSLRTLELGSESQGASESQAPGEENLLGEAAGGQDMADSMLMQGSRGLTDQAIFYAVTPLPWCPHLVAVCPIPAAGLDVTQPCGDCGTIQENWVCLSCYQVYCGRYINGHMLQHHGNSGHPLVLSYIDLSAWCYYCQAYVHHQALLDVKNIAHQNKFGEDMPHPH [HDAC6]”, the “solubility change mitosis (log2)” value in the data set on HeLa Kyoto [1] was -0.0591. The melting temperature is 50.5 °C with HeLa Kyoto [2] (cell cycle stage: G1/S) and 52 °C in the data set with HeLa Kyoto [2] (cell cycle stage: mitosis). In addition, the “solubility in G1/S (log2)” value with HeLa Kyoto [3] is -0.0107.
